Assay results as given in article PMC9205196 (Nature chemical biology, 2022).

T1: FGFR1, biotinylated (UniProt P11362 22-822, biotin (sulfo-NHS-biotin))
T1 chain: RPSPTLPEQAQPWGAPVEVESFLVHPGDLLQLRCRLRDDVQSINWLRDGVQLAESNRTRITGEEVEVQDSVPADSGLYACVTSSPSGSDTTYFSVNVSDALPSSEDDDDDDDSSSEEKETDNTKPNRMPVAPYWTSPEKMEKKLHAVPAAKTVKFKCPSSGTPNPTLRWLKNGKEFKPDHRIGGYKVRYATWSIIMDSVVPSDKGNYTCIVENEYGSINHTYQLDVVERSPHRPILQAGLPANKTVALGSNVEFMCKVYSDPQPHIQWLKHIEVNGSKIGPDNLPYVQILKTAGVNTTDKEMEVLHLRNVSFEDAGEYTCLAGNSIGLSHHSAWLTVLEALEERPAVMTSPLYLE


Columns and labels:
Assay in all cases: AlphaScreen or HTRF
[1] = biological target: T1, FGFR1, biotinylated
[2] = biological target: T1, FGFR1, biotinylated
[3] = biological target: Recombinant human FGF2 (fibroblast growth factor-2), biotinylated (human, biotin (sulfo-NHS-biotin))
[4] = biological target: Vitronectin (VN), biotinylated (UniProt P04004 20-478, biotin (sulfo-NHS-biotin))
Chain of Vitronectin (VN), biotinylated (P04004 20-478): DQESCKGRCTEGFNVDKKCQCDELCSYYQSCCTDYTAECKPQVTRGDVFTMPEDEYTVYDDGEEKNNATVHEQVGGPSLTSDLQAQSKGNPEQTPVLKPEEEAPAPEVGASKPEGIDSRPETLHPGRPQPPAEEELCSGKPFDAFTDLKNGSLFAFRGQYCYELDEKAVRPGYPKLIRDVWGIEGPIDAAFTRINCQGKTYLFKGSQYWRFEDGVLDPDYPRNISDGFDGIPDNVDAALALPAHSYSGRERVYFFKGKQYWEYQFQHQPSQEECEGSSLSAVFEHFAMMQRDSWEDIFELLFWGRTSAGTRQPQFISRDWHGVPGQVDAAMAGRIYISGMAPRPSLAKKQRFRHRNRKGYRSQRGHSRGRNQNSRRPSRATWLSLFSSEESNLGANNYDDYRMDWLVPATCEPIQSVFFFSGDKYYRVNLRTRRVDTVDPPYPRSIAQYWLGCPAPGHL

Row | EC50 of ternary complex formation with soluble non-tagged FGF2 [1] | EC50 [2] | EC50 [3] | EC50 [4] | Binder
1 | 0.004 nM | 0.4 nM | 0.3 nM | 0.8 nM | SDC1_(45,47HEP): murine syndecan-1 ectodomain with heparin conjugated at residues 45 and 47 (domain or fragment, p-propargyltyrosine (pPY) at 45 and 47, each joined by CuAAC to azido-heparin (azHEP)) QIVAVNVPPEDQDGSGDDSDNFYGYGTGALPDTLSRQTPSTWKDVWLLTATPTAPEPTSSNTETAFTSVLPAGEKPEEGEPVLHVEAEPGFTARDKEKEVTTRPRETVQLPITQRASTVRVTTAQAAVTSHPHGGMQPGLHETSAPTAPGQPDHQPPRVEGGGTSVIKEVVEDGTANQLPAGEGSGEQDFTFETSGENTAVAAVEPGLRNQPPVDEGATGASQSLLDRKEVLG
2 | 4 nM | > 20 nM | – | > 100 nM | mSDC1: commercial glycosylated, mammalian expressed recombinant mouse SDC1 ectodomain (domain or fragment, UniProt P18828 23-255, looked up, native GAG chains from the mammalian host (CS predominant over HS by the paper's disaccharide analysis)) QIVAVNVPPEDQDGSGDDSDNFSGSGTGALPDTLSRQTPSTWKDVWLLTATPTAPEPTSSNTETAFTSVLPAGEKPEEGEPVLHVEAEPGFTARDKEKEVTTRPRETVQLPITQRASTVRVTTAQAAVTSHPHGGMQPGLHETSAPTAPGQPDHQPPRVEGGGTSVIKEVVEDGTANQLPAGEGSGEQDFTFETSGENTAVAAVEPGLRNQPPVDEGATGASQSLLDRKEVLG
3 | 0.008 nM | 0.3 nM | 0.3 nM | 0.5 nM | SDC1_(37,45,47HEP): murine syndecan-1 ectodomain with heparin conjugated at residues 37, 45 and 47 (domain or fragment, p-propargyltyrosine (pPY) at 37, 45 and 47, each joined by CuAAC to azido-heparin (azHEP)) QIVAVNVPPEDQDGYGDDSDNFYGYGTGALPDTLSRQTPSTWKDVWLLTATPTAPEPTSSNTETAFTSVLPAGEKPEEGEPVLHVEAEPGFTARDKEKEVTTRPRETVQLPITQRASTVRVTTAQAAVTSHPHGGMQPGLHETSAPTAPGQPDHQPPRVEGGGTSVIKEVVEDGTANQLPAGEGSGEQDFTFETSGENTAVAAVEPGLRNQPPVDEGATGASQSLLDRKEVLG
